Data published in PMC7141811.

Columns and labels:
[1] = target: mEGFP-CaMKII-α (human Ca2+/calmodulin-dependent protein kinase II α, Avitag-linker-mEGFP-linker-CaMKII-α) (human) (UniProt Q9UQM7)
[2] = target: mEGFP-CaMKII-α (human Ca2+/calmodulin-dependent protein kinase II α, Avitag-linker-mEGFP-linker-CaMKII-α) (human) (UniProt Q9UQM7); assay: single-molecule pull-down with TIRF colocalisation; mEGFP-CaMKII-α and mCherry-CaMKII-β* co-transfected in HEK 293T cells (α:β* 3:1 and 1:1); biotinylated holoenzymes captured from 100-200x diluted lysate on streptavidin-coated glass; colocalisation of green and red spots; data not shown

Chain of UniProt Q9UQM7 (Q9UQM7 whole entry): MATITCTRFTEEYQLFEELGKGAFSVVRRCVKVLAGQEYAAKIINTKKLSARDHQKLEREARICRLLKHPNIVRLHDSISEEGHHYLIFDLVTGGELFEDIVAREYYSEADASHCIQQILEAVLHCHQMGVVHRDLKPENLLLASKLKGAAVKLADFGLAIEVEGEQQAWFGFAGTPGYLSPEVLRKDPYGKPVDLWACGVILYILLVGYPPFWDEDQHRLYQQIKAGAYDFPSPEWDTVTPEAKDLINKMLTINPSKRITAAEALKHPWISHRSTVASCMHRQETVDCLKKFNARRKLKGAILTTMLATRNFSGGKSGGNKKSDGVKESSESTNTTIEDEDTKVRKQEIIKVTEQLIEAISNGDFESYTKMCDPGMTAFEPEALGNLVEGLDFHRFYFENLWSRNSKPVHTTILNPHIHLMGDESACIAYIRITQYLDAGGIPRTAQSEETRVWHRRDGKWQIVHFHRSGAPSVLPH

Substance | EC50 of CaMKII-α activation (autophosphorylation at Thr 286 of glass-immobilised holoenzymes, single-molecule TIRF) by Ca2+/CaM, 20 nM to 5 μM, 100 μM Ca2+, ATP [1] | percent colocalization of red and green spots (heterooligomeric holoenzymes) [2]
calmodulin (Ca2+/calmodulin) (from UniProt P62157 1-149) (natural protein) | 50 to 100 nM | –
mCherry-CaMKII-β* (CaMKII-α in which the kinase-hub linker is replaced by that from CaMKII-β) (enzyme) | – | 80%
